# From US20240141039A1 (AGENUS, published 2024)
# T1: full-length isoform 2 ECD of cynomolgus monkey CD96 (His-tagged) (cynomolgus monkey)
# T1 construct: also called His-tagged isoform 2 of cynomolgus monkey CD96; cyno CD96 extracellular domain isoform 2
# T1 chain: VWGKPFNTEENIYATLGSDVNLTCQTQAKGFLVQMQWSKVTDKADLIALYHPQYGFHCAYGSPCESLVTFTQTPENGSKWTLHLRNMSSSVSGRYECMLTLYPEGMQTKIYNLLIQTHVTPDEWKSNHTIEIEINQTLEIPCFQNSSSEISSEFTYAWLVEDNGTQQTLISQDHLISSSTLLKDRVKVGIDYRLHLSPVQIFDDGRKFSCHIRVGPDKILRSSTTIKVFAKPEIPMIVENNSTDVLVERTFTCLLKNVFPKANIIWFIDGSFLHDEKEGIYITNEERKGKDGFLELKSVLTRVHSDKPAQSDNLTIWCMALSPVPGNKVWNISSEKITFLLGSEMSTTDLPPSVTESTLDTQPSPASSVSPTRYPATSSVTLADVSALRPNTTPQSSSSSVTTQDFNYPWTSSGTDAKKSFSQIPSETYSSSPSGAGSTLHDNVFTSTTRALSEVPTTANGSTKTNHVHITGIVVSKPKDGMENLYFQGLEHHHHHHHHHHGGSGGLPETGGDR
# T2: wild type full-length human TIGIT expressed on cells (human, UniProt Q495A1 22-244)
# T2 construct: whole, on cells; also called human TIGIT-CHO; human TIGIT CHO cells
# T2 sequence (looked up): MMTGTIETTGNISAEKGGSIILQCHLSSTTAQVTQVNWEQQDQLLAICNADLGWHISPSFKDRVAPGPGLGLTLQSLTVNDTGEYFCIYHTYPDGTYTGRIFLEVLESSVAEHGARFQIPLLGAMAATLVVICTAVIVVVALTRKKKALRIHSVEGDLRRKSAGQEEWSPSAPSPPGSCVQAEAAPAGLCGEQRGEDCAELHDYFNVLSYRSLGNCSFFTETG
# How the values were obtained:
# [1] = molecular target: T1, full-length isoform 2 ECD of cynomolgus …; experiment: SPR Biacore T200, geomean of experiments #1 and #2
# Experimental: (§1) Briefly, surface plasmon resonance experiments were performed using a Biacore T200 instrument, and the association rate (kₐ), dissociation rate (kd), and dissociation constant (KD) were calculated from each experiment using a 1:1 binding model with Biacore T200 Evaluation Software.
# (§2) Multispecific molecules were captured using a 30-sec injection at a flow rate of 10 μl/min to reach about 350 resonance units (RUs). […] The sensor chip was regenerated between cycles with two 30-sec injections of 10 mM glycine, pH 1.5. Sensorgrams were evaluated and fit to a simple Langmuir 1:1 interaction model using the global data analysis option of BIAevaluation 3.0 software. Data quality was verified by visually inspecting deviations and curve fitting, and by evaluating the parameters of Rₘₐₓ, Chi2, and Tc.
# [2] = molecular target: T1, full-length isoform 2 ECD of cynomolgus …; experiment: SPR Biacore T200, Protein A capture, 1:1 model, experiment #1
# Experimental: as §1, §2
# [3] = molecular target: T2, wild type full-length human TIGIT …; experiment: flow cytometry, human TIGIT CHO cells, geomean of 2 experiments
# Experimental: The ability of anti-TIGIT antibodies to bind to wild type human TIGIT expressed on the surface of CHO cells was assessed. Briefly, CHO cells were transfected with a vector encoding wild type human TIGIT (human TIGIT-CHO), and clones stably expressing TIGIT were selected.
# For the antibody binding assay, a frozen aliquot of human TIGIT-CHO cells was thawed at 37° C. and then transferred to a tube containing DPBS supplemented with 0.5% Bovine Serum Albumin and 0.05% Sodium Azide (FACS Buffer). Cells were centrifuged at 300 g for five minutes. The supernatant was discarded, and cells resuspended in FACS buffer were seeded in a 96-well U-bottom tissue culture plate at a density of […] cells per well in 50 μL. In a separate microplate, a 2× concentrated intermediate stock of each antibody was prepared. Antibodies were serially diluted 1-to-4 in FACS buffer. A total of 11 working dilutions ranging from 60 μg/mL to 0.000057 μg/mL were prepared. […] After a 30-minute incubation on ice, the cells were washed twice with cold FACS Buffer, and the cells were analyzed by flow cytometry (BD LSR Fortessa Flow Cytometer). The data were analyzed using the FlowJo software by sequentially gating the FSC-A vs. SSC-A, and SSC-H vs. SSC-A. Mean fluorescence intensity (MFI) values for PE were calculated, and the data were plotted by GraphPad Prism software.
# [4] = molecular target: T3, wild type full-length cynomolgus monkey TIGIT expressed on CHO cells (cynomolgus monkey, UniProt A0A7N9I9V4 89-312); experiment: flow cytometry on CHO cells expressing cynomolgus TIGIT, PE anti-human IgG Fc detection
# T3 construct: whole, on cells; also called cynomolgus TIGIT-CHO cells
# [5] = molecular target: T2, wild type full-length human TIGIT …; experiment: flow cytometry, blocking of CD155-Fc-PE binding to human TIGIT CHO cells, geomean of 3 experiments
# Experimental: A 4× concentrated intermediate stock of each antibody was prepared in a microplate. Antibodies were serially diluted 1-to-4 in FACS buffer. […] Lastly, 25 μL of human TIGIT-CHO cells, prepared as described above, were added to each well. After a 30-minute incubation on ice, the cells were washed twice with cold FACS Buffer, and the cells were analyzed by flow cytometry (BD LSR Fortessa Flow Cytometer). The data were analyzed using the FlowJo software by sequentially gating on the FSC-A vs. SSC-A and SSC-H vs. SSC-A. Mean fluorescence intensity (MFI) values for PE were calculated, and the data were plotted by GraphPad Prism software and analyzed as described above.
# T3 sequence (A0A7N9I9V4 entry or part of it): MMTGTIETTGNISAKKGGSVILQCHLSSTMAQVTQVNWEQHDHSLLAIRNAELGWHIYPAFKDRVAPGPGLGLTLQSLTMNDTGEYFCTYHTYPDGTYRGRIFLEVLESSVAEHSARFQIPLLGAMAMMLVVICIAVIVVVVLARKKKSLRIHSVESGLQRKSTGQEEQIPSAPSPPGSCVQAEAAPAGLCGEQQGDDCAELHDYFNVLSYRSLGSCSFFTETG
Binder,Kd [1],Kd [2],koff [2],kon [2],EC50 [3],EC50 (read off the curve) [4],IC50 [5]
"anti-TIGIT×CD96 multispecific molecule BA123 (bispecific antibody, human IgG1, kappa, lambda, copies: 1 + 1 + 1 + 1) heavy 1: QVQLVQSGAEVKKPGASVKVSCKASGYTFTSYGISWVRQAPGQGLEWMGWISAYNANTNYAQKLQGRVTMTTDTSTSTAYMELRSLRSDDTAVYYCARSAGVLGGMDVWGRGTLVTVSSASTKGPSVFPLAPSSKSTSGGTAALGCLVKDYFPEPVTVSWNSGALTSGVHTFPAVLQSSGLYSLSSVVTVPSSSLGTQTYICNVNHKPSNTKVDKRVEPKSCDKTHTCPPCPAPELLGGPDVFLFPPKPKDTLMISRTPEVTCVVVDVSHEDPEVKFNWYVDGVEVHNAKTKPREEQYNSTYRVVSVLTVLHQDWLNGKEYKCKVSNKALPAPIEKTISKAKGQPREPQVYTLPPSREEMTKNQVSLSCAVKGFYPSDIAVEWESNGQPENNYKTTPPVLDSDGSFFLVSKLTVDKSRWQQGNVFSCSVMHEALHNHYTQKSLSLSPG light 1: not shown heavy 2: EVQLVQSGAEVKKPGSSVKVSCKASGYTFASYGISWVRQAPGQGLEWMGGITPFFNRVDVAEKFQGRVTITADKSTSTAYIELSSLRSEDTAVYYCARDLRRGGVGDAFDIWGRGTLVTVSSASTKGPSVFPLAPSSKSTSGGTAALGCLVKDYFPEPVTVSWNSGALTSGVHTFPAVLQSSGLYSLSSVVTVPSSSLGTQTYICNVNHKPSNTKVDKRVEPKSCDKTHTCPPCPAPELLGGPDVFLFPPKPKDTLMISRTPEVTCVVVDVSHEDPEVKFNWYVDGVEVHNAKTKPREEQYNSTYRVVSVLTVLHQDWLNGKEYKCKVSNKALPLPEEKTISKAKGQPREPQVYTLPPSREEMTKNQVSLWCLVKGFYPSDIAVEWESNGQPENNYKTTPPVLDSDGSFFLYSKLTVDKSRWQQGNVFSCSVMHEALHNHYTQKSLSLSPG light 2: QSALTQPRSVSGSPGQSVTISCTGTSPDVGSHAYRSWYQQHPGKAPKLMIYEVSYRPSGVSNRFSGSKSGNTASLTISGLQAEDEADYYCSSYPPSSATVFGAGTKLTVLGQPKAAPSVTLFPPSSEELQANKATLVCLISDFYPGAVTVAWKADSSPVKAGVETTTPSKQSNNKYAASSYLSLTPEQWKSHRSYSCQVTHEGSTVEKTVAPTEC",45.3 nM,48 nM,0.00379 s⁻¹,79000 M⁻¹ s⁻¹,–,–,–
"anti-TIGIT monospecific antibody BA148 (antibody, human IgG1, lambda, IgG1; also called anti-TIGIT IgG1 antibody BA148) heavy: EVQLVQSGAEVKKPGSSVKVSCKASGYTFASYGISWVRQAPGQGLEWMGGITPFFNRVDVAEKFQGRVTITADKSTSTAYIELSSLRSEDTAVYYCARDLRRGGVGDAFDIWGRGTLVTVSSASTKGPSVFPLAPSSKSTSGGTAALGCLVKDYFPEPVTVSWNSGALTSGVHTFPAVLQSSGLYSLSSVVTVPSSSLGTQTYICNVNHKPSNTKVDKRVEPKSCDKTHTCPPCPAPELLGGPDVFLFPPKPKDTLMISRTPEVTCVVVDVSHEDPEVKFNWYVDGVEVHNAKTKPREEQYNSTYRVVSVLTVLHQDWLNGKEYKCKVSNKALPLPEEKTISKAKGQPREPQVYTLPPSREEMTKNQVSLTCLVKGFYPSDIAVEWESNGQPENNYKTTPPVLDSDGSFFLYSKLTVDKSRWQQGNVFSCSVMHEALHNHYTQKSLSLSPGK light: QSALTQPRSVSGSPGQSVTISCTGTSPDVGSHAYRSWYQQHPGKAPKLMIYEVSYRPSGVSNRFSGSKSGNTASLTISGLQAEDEADYYCSSYPPSSATVFGAGTKLTVLGQPKAAPSVTLFPPSSEELQANKATLVCLISDFYPGAVTVAWKADSSPVKAGVETTTPSKQSNNKYAASSYLSLTPEQWKSHRSYSCQVTHEGSTVEKTVAPTEC",–,–,–,–,8.2 ng/mL,~40 ng/mL,8.4 ng/mL
